B1: Western corn rootworm (Diabrotica virgifera virgifera) deoxyuridine 5'-triphosphate nucleotidohydrolase (dUTPase), construct from residue 25 with Arg89Lys, … (enzyme, UniProt A0A6P7FUX9 25-168, looked up)
chain: GANILLKYTKVIEEAYPPTKGSVKAAGYDLKSAHDVVVPARGKALVDTGLKIELPEGCYGRIAPKSGLAVKNFIDVGAGVVDEDYRGLLKVVLFNHSDNDFEVKSGDRIAQLICERIFYPELEEVKELTDTARGEGGFGSTGTQ
notes: dUTPase of Diabrotica virgifera virgifera LeConte (protein XP_028136545; UniProt ID A0A6P7FUX9_DIAVI); the construct starts at the 25th residue of the WCR dUTPase; Arg89 changed to Lys to prevent secondary thrombin cleavage; Cloned into pET-15 by NcoI and XhoI; also called WCR dUTPase; product of WCR DUT; source: E. coli, purified (Ni-NTA, HiTrap Q; His-tag removed with human alpha-thrombin, …)

Experiments:
[1] = system: T1, O=c1ccn([C@H]2C[C@H](O)[C@@H](COP(=O)(O)OP(=O)(O)OP(=O)(O)O)O2)c(=O)[nH]1; assay: cresol red proton-release assay, stopped-flow spectrophotometer, integrated Michaelis-Menten fit; format: biochemical, Diabrotica virgifera; details: 50 nM enzyme, 1 mM dUTP; activity prevented by EDTA
T1 construct: starts at residue 25; R89K to prevent secondary thrombin cleavage; N-terminal 6-His tag cut by thrombin; codon-optimized synthetic gene in pET-15, E. coli; trimer (48 kDa by SEC)
Text: cresol red proton-release assay, stopped-flow spectrophotometer, integrated Michaelis-Menten fit on WCR dUTPase

[2] = target: the molecule itself; assay: SEC; Superdex matrix, molecular weight calibrated with the BioRad SEC standard; tag-free dUTPase, estimated 48 kDa against 15.6 kDa on SDS-PAGE

Molecule	Km [1] [µM]	kcat [1] [s⁻¹]	kcat/Km [1] [M⁻¹ s⁻¹]	stoichiometry N [2]
WCR dUTPase (Diabrotica virgifera virgifera; R89K)	0.7 ± 0.1	30 ± 0.5	4e+07	
B1				3

From paper PMC10652518, “Enzyme kinetics of deoxyuridine triphosphatase from Western corn rootworm” (BMC Research Notes, 2023)
